# Test system: not listed separately
# Assay: Measurement of isoelectric point by isoelectric electrophoresis gel
# Format: physicochemical
# Settings: IEF PAGE mini gel, pH range 3 to 10, compared with pI markers
# Description: The isoelectric point can be measured using any conventional isoelectric electrophoresis technique well-known to the skilled person in the art. OCIF is a basic protein and the isoelectric point thereof is about pI 9. […] Therefore, it is possible to readily distinguish complexed and uncomplexed OCIF using this technique.
# The purified recombinant dimeric human OCIF, prepared as described in Preparation Example 1(a) above and the complex of OCIF and dextran sulfate prepared in Preparation Example 1(b) above which is designated Preparation Number 22 in Table 1 were applied separately to an isoelectric electrophoresis gel IEF PAGE mini (pH range of 3 to 10, manufactured by Iwaki Glass), using an IEF pH 3-7 buffer kit (Technical Frontier Co.) and a voltage was applied to the gel according to the following regime: 100 V for 1 hour, followed by 200 V for 1 hour and finally 500 V for 30 minutes. After completion of the electrophoresis, the resultant gel obtained in each case was stained with Coomassie Blue.
# From the electrophoresis gels obtained above, it was determined that the isoelectric point of the dimeric human OCIF was about pI 9, and the isoelectric point of the complex of OCIF and dextran sulfate designated Preparation Number 22 was about pI 6.5 by comparing the band position of OCIF and that of the OCIF complex with pI markers.
row,Compound,isoelectric point (pI)
1,"OCIF: recombinant dimeric human osteoclastogenesis inhibitory factor, molecular weight about 120000, non-complexed",~9
2,"Prep. 22: OCIF/DS5 complex: DS5 150 mg/ml, OCIF 5 mg/ml, 7 °C, pH 10.5, 168 h",~6.5

# Test system: adjuvant-arthritis Lewis rat
# Assay: Adjuvant arthritis in Lewis rats, femur bone mineral density: OCIF complex with loxoprofen sodium
# Format: in vivo
# Settings: distal ends of femurs, day 21 after adjuvant; loxoprofen sodium 5 mg/kg p.o. and/or Preparation 11 0.1 mg/kg i.p. daily, days 14 to 20
# Procedure: This example was carried out according to the method described in C. V. Winder, et al. Arthritis Rheum 12 472 (1957). Heat-killed cells of Mycobacterium butyricum were pulverized in an agate mortar and then suspended in liquid paraffin sterilized with hot air to give a suspension having a cellular concentration of 2 mg/ml. This suspension was then subjected to ultrasonication so as to produce an adjuvant. 50 μl of the obtained adjuvant were injected intradermally at each of two sites in the base of the tail of a Lewis rat (eight-weeks old, female) (200 μg in total per rat), to induce arthritis in said rat. […] As a control, instead of the loxoprofen sodium, OCIF complex Preparation 11 or a combination thereof, only the solvents used for dissolving them were administered to the rat. […] The bone mineral densities of the distal ends of the right-and-left femurs were measured using an X-ray measurement apparatus (Dual energy X-ray absorptiometry DCS-600R, manufactured by Aroka Co., Ltd.), and the average of each of the measured values was calculated, and was defined as the bone mineral density of the individual. In order to evaluate the differences between the averages of the bone mineral densities of each group, significant difference was tested by Student's t-test, and the P value was calculated.
row,Compound,Bone mineral density (average ± standard error) [mg/cm^2]
1,"CC(C(=O)O)c1ccc(CC2CCCC2=O)cc1 (stereo not shown) [Loxoprofen sodium, loxoprofen sodium, reference compound]",106.5 ± 0.8
2,"Prep. 11: OCIF/DS5 complex: DS5 100 mg/ml, OCIF 5 mg/ml, 4 °C, pH 10.5, 18 h",109.6 ± 2.1

# Test system: adjuvant-arthritis Lewis rat
# Assay: Adjuvant arthritis in Lewis rats, femur bone mineral density: OCIF complex with celecoxib
# Format: in vivo
# Settings: distal ends of femurs, day 21 after adjuvant; celecoxib 1 mg/kg p.o. and/or Preparation 22 3.5 mg/kg i.p. daily, days 14 to 20
# Procedure: Arthritis was induced in test groups of Lewis rats (eight-weeks old, female) according to the same procedure described in Example 2 above.
# From the 14th to 20th days after injection of the adjuvant, celecoxib [Thomas D, P., et al., J. Med. Chem., 40, 1347-1365 (1997); WO-A-95/15316] suspended in a 0.5% tragacanth aqueous solution (manufactured by Nihon Funmatsu Yakuhin Co., Ltd.) at a concentration of 0.2 mg/ml was orally administered to each rat of one test group at a rate of 5 ml/kg each day so that the dose of […] administered was 1 mg/kg body weight. […]
# Each rat was dissected on the 21 st day after injection of the adjuvant, and the right-and-left femurs were extracted. The bone mineral densities of the distal ends of the right-and-left femurs were measured using an X-ray measurement apparatus (Dual energy X-ray absorptiometry DCS-600R, manufactured by Aroka Co., Ltd.), and the average of each of the measured values was calculated, and was defined as the bone mineral density of the individual.
# In order to evaluate the differences between the averages of the bone mineral densities of each group, significant difference was tested by Student's t-test, and the P value was calculated.
row,Compound,Bone mineral density (average ± standard error) [mg/cm^2]
1,"Cc1ccc(-c2cc(C(F)(F)F)nn2-c2ccc(S(N)(=O)=O)cc2)cc1 [Celecoxib, celecoxib, reference compound]",103.0 ± 1.8
2,"Prep. 22: OCIF/DS5 complex: DS5 150 mg/ml, OCIF 5 mg/ml, 7 °C, pH 10.5, 168 h",104.2 ± 2.1

# Test system: not listed separately
# Assay: Degree of adsorption to a heparin cross-linked column
# Format: physicochemical
# Settings: applied and washed with 0.7 M NaCl, eluted with 2 M NaCl in 10 mM sodium phosphate buffer; OCIF by ELISA
# Description: A preferred feature of the complexes used in the present invention that can be used to characterise them is their affinity to heparin. Heparin is a polysaccharide comprising D-glucosamine, D-glucuronic acid and D-iduronic acid which is partially or fully derivatised with sulfate and acetyl groups. A preferred feature of the complexes employed in the present invention is that the strength of adsorption of said complex of OCIF or an anlogue or variant thereof to heparin is lower than the strength of adsorption of the free, non-complexed OCIF or analogue or variant thereof. The degree of adsorption can be determined using a column packed with highly cross-linked. linked agarose beads on which has been immobilized heparin (e.g. heparin obtained from bovine intestinal mucosa). Suitable columns of this type include HiTrap heparin HP column, HiPrep 16/10 Heparin and Heparin Sepharose (all obtainable from Amersham Pharmacia). The strength of adsorption (the affinity) of the complex can be determined according to any suitable method that is well known to the person skilled in the art for determining the affinity of proteins to polysaccharides. […] Thus, typically the degree of adsorption of the complex to heparin can be determined as follows:
# (a) A column packed with a support such as cross-linked agarose beads on which has been immobilized heparin is equilibrated with a buffer having a relatively low ionic strength (e.g. sodium phosphate buffer containing 0.1-0.8 M sodium chloride).
# (b) The complex of the present invention that is being tested is dissolved in the same low ionic strength buffer as used in (a) and applied to the column and a first eluate is then collected (fraction A).
# (c) The column is then washed further with the same low ionic strength buffer as used in step (a) and a second eluate is collected (fraction B).
# (d) The column is then washed with a buffer having a relatively high ionic strength (e.g. sodium phosphate buffer containing 1.0-2.0 M sodium chloride) and a third eluate is then collected (fraction C).
# (e) The amount of the complex present in each of fractions A, B and C [designated (α), (β) and (γ) respectively] is then determined (e.g. by an immunoassay).
# (f) The degree of adsorption of the complex to heparin is then determined according to the following formula: [formula]
# The degree of adsorption of the complexes of the present invention as measured by the above formula will vary to some extent depending upon the type of heparin column and the conditions under which the determination is carried out.
# A heparin cross-linked column (HiTrap Heparin HP column, Lot. 289212, Amersham Bioscience) was pre-equilibrated with 5 ml of 10 mM sodium phosphate buffer containing 0.7 M sodium chloride. A preparation from Table 1 of Preparation Example 1 was taken and diluted to a final protein concentration of 0.1 mg/ml with 10 mM sodium phosphate buffer containing 0.7 M sodium chloride. 1 ml of the diluted solution thus obtained was applied to said column and 1 ml of a first eluate was collected (fraction A). Next, 5 ml of 10 mM sodium phosphate buffer containing 0.7 M sodium chloride were applied to said column and 5 ml of a second eluate were collected (fraction B). Finally, 4 ml of 10 mM sodium phosphate buffer containing 2M sodium chloride were applied to said column and 4 ml of an eluate were collected (fraction C).
# 100 μL of 0.1 M sodium hydrogen carbonate (pH 9.6), in which was dissolved an anti-human OCIF monoclonal antibody OI-19 (FERM BP-6420) at a concentration of 10 μg per ml, were transferred to each well of a 96-well microtitre plate (Maxisorp: NUNC Co Ltd.). The plate was sealed and then incubated at 4° C. overnight. At the end of this incubation time, the solution in each well was removed by decantation, 300 μL of 50% Block Ace (purchased from Dainippon Pharmaceutical Co., Ltd.) were added to each well, and then the plate was incubated at room temperature for 2 hours. […]
row,Compound,The degree of adsorption of the OCIF/DS complex to a heparin cross-linked column
1,"Prep. 6: OCIF/DS5 complex: DS5 130 mg/ml, OCIF 6.5 mg/ml, 4 °C, pH 10.5, 48 h",0.451
2,"Prep. 7: OCIF/DS5 complex: DS5 130 mg/ml, OCIF 6.5 mg/ml, 4 °C, pH 10.5, 144 h",0.183
3,"Prep. 8: OCIF/DS5 complex: DS5 130 mg/ml, OCIF 6.5 mg/ml, 4 °C, pH 10.5, 288 h",0.153
4,"Prep. 22: OCIF/DS5 complex: DS5 150 mg/ml, OCIF 5 mg/ml, 7 °C, pH 10.5, 168 h",0.264
5,"Prep. 24: OCIF/DS5 complex: DS5 150 mg/ml, OCIF 5 mg/ml, 25 °C, pH 10, 24 h",0.072
6,"Prep. 25: OCIF/DS5 complex: DS5 130 mg/ml, OCIF 6.5 mg/ml, 4 °C, pH 10.5, 24 h",0.611
7,"Prep. 27: OCIF/DS5 complex: DS5 150 mg/ml, OCIF 5 mg/ml, 4 °C, pH 10.5, 144 h",0.141

# Source: patent publication US20030216297A1, “Pharmaceutical composition” (SANKYO COMPANY, LIMITED, priority 2002, published 2003)
